# Patent US20220403029A1 (KYMAB, published 2022)
# Read-outs that look alike come from different tables or passages of the source.
# T1: human ICOS expressed on cells (human, UniProt Q9Y6W8 21-199)
# T1 construct: also called hICOS CHO; Human ICOS CHO
# T1 sequence: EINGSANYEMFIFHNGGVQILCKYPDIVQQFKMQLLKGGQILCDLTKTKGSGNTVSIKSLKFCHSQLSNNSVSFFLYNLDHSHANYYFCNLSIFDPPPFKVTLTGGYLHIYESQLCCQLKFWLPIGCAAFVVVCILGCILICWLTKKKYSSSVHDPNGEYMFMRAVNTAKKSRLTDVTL
# T2: mouse ICOS expressed on CHO-S cells (mouse, UniProt Q9WVS0 21-141)
# T2 construct: full length mouse ICOS (NCBI NP_059508.2) was transfected; also called mICOS CHO; Mouse ICOS CHO
# T2 sequence: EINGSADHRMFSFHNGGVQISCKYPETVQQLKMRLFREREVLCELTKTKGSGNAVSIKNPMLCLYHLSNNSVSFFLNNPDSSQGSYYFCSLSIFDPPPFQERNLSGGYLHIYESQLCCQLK
# T3: mouse ICOS-mFc (Chimerigen) (mouse, UniProt Q9WVS0 21-144)
# T3 construct: bought; also called mouse ICOS receptor; not shown: mouse Fc of a bought reagent
# T3 sequence (looked up): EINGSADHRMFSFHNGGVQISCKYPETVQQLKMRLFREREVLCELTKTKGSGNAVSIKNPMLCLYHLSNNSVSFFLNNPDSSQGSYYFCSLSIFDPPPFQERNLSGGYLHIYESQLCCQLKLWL
# T4: human ICOS-mFc (Chimerigen) (human, UniProt Q9Y6W8 21-141)
# T4 construct: bought; also called human ICOS receptor; not shown: mouse Fc of a bought reagent
# T4 sequence (looked up): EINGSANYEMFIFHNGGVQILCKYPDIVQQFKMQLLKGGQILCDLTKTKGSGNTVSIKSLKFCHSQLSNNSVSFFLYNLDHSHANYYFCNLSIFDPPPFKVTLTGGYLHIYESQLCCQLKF
# Experiments:
# [1] = target: T1, human ICOS expressed on cells; experiment: FACS screen on CHO-S cells expressing human ICOS
# Description: (§1) BCT supernatants and HEK293 expressed antibodies from Example 5 were tested for ability to bind to CHO-S cells expressing human or mouse ICOS.
# (§2) CHO-S cells expressing human or mouse ICOS (see Example 2), were diluted in FACS buffer (PBS 1% BSA 0.1% sodium azide) and were distributed to a 96-well, V-bottom plate (Greiner) at a density of 1×10⁵ cells per well. Cells were washed with 150 μL PBS and centrifuged at 300 g for 3 minutes. For supernatant screening, supernatant was aspirated and 150 μL PBS added. This wash step was repeated. 30 μL BCT undiluted supernatant or 50 μL of reference antibody or control antibody diluted to 5 μg/ml in BCT media was added to the washed cells. Cells were incubated at 4° C. for 60 minutes. 150 μL FACS buffer was added and cells washed as described above. To detect antibody binding, 50 μL of goat anti-mouse APC (Jackson ImmunoResearch) diluted to 2 μg/ml in FACS buffer was added to cells. Cells were incubated 4° C. for 60 minutes. Cells were washed twice with 150 μL FACS buffer, centrifuging at 300 g for 3 minutes after each wash step and aspirating supernatant. Cells were fixed by addition of 25 μL 4% paraformaldehyde for 20 minutes at room temperature. Cells were washed once as above and resuspended in FACS buffer for analysis. APC signal intensity (geometric mean) was measured by flow cytometry using a BD FACS Array instrument. Data were plotted as geometric mean values without further calculation.
# [2] = target: T2, mouse ICOS expressed on CHO-S cells; experiment: FACS screen on CHO-S cells expressing mouse ICOS
# Description: as §1, §2
# [3] = target: T1, human ICOS expressed on cells; experiment: cell-based or functional assay
# [4] = target: T1, human ICOS expressed on cells; experiment: cell-based or functional assay; remark: listed apart in the source
# [5] = target: T1, human ICOS expressed on cells; experiment: cell-based or functional assay; remark: listed apart in the source
# [6] = target: T1, human ICOS expressed on cells; experiment: flow cytometry on CHO-S cells expressing human ICOS
# [7] = target: T2, mouse ICOS expressed on CHO-S cells; experiment: flow cytometry on CHO-S cells expressing mouse ICOS
# [8] = target: T3, mouse ICOS-mFc (Chimerigen); experiment: HTRF neutralisation of mouse B7-H2 binding to mouse ICOS-mFc, hamster IgG in the IgG1 series; SD 0 (n = 3)
# [9] = target: T4, human ICOS-mFc (Chimerigen); experiment: HTRF neutralisation of human B7-H2 binding to human ICOS-mFc, hamster IgG in the IgG1 series; SD 0.3 (n = 4)
# [10] = target: T4, human ICOS-mFc (Chimerigen); experiment: HTRF neutralisation of human B7-H2 binding to human ICOS-mFc, hamster IgG in the IgG4.PE series; SD 3.8 (n = 4)
# [11] = target: T3, mouse ICOS-mFc (Chimerigen); experiment: HTRF neutralisation of mouse B7-H2 binding to mouse ICOS-mFc, hamster IgG in the IgG4.PE series; SD 0.1 (n = 3)
# [12] = target: T3, mouse ICOS-mFc (Chimerigen); experiment: HTRF neutralisation of mouse B7-H2 binding to mouse ICOS-mFc, IgG1 series; same result as the 6th table, row 13, column 3 with more digits
binder,measurement,setting,value
"STIM009 as screened from BCT (mouse IgG1 constant region) (antibody, V domains shown, as m28) VH: QVQLVESGGGLVKPGGSLRLSCAASGFTFSDYYMSWIRQAPGKGLEWVSYISSSGSTIYYADSVKGRFTISRDNAKNSLYLQINSLRAEDTAVYYCARDFYDILTDSPYFYYGVDVWGQGTTVTVSS VL: not shown",fold above average geomean of hybrid control,[1],> 4 fold
same,fold above average geomean of hybrid control,[2],> 4 fold
STIM001 human IgG1 (antibody) heavy: not shown light: DIVMTQSPLSLPVTPGEPASISCRSSQSLLHSNEYNYLDWYLQKPGQSPQLLIFLGSNRASGVPDRFSGSGSGTDFTLKITRVEAEDVGIYYCMQSLQTPLTFGGGTKVEIKRTVAAPSVFIFPPSDEQLKSGTASVVCLLNNFYPREAKVQWKVDNALQSGNSQESVTEQDSKDSTYSLSSTLTLSKADYEKHKVYACEVTHQGLSSPVTKSFNRGEC,"EC50, primary NK cell ADCC on MJ cells, 2 h, Donor 1",[3],0.121 nM
same,"EC50, primary NK cell ADCC on MJ cells, 2 h, Donor 2",[3],0.529 nM
same,"EC50, primary NK cell ADCC on MJ cells, 2 h, Donor 1",[4],0.121 nM
same,"EC50, primary NK cell ADCC on MJ cells, 2 h, Donor 2",[4],0.529 nM
same,"EC50, primary NK cell ADCC on MJ cells, 2 h, Donor 3",[4],2.92 nM
same,"EC50, primary NK cell ADCC on ICOS-transfected CCRF-CEM cells, 4 h, Donor 4",[5],0.00392 nM
same,"EC50, primary NK cell ADCC on ICOS-transfected CCRF-CEM cells, 4 h, Donor 5",[5],0.00395 nM
same,"EC50, primary NK cell ADCC on ICOS-transfected CCRF-CEM cells, 4 h, Donor 6",[5],0.00375 nM
"STIM003 as screened from BCT (mouse IgG1 constant region) (antibody, V domains shown, as m28) VH: EVQLVESGGGVVRPGGSLRLSCVASGVTFDDYGMSWVRQAPGKGLEWVSGINWNGGDTDYSDSVKGRFTISRDNAKNSLYLQMNSLRAEDTALYYCARDFYGSGSYYHVPFDYWGQGILVTVSS VL: EIVLTQSPGTLSLSPGERATLSCRASQSVSRSYLAWYQQKRGQAPRLLIYGASSRATGIPDRFSGDGSGTDFTLSISRLEPEDFAVYYCHQYDMSPFTFGPGTKVDIK",fold above average geomean of negative control (HTK888),[1],> 4 fold
same,fold above average geomean of negative control (HTK888),[2],> 4 fold
"STIM004 as screened from BCT (mouse IgG1 constant region) (antibody, V domains shown, as m28) VH: EVQLVESGGGVVRPGGSLRLSCAASGLTFDDYGMSWVRQVPGKGLEWVSGINWNGDNTDYADSVKGRFTISRDNAKNSLYLQMNSLRAEDTALYYCARDYYGSGSYYNVPFDYWGQGTLVTVSS VL: not shown",fold above average geomean of negative control (HTK888),[1],> 4 fold
same,fold above average geomean of negative control (HTK888),[2],> 4 fold
"CL-61091 (IgG1 format) (antibody, V domains shown, synthesised and expressed in human IgG1 format in HEK cells; tested as supernatant) VH: QVQLMQSGTEVKKPGASVKVSCKTSGYTFTTYGITWVRQAPGQGLEWMGWISAYSGDTDYAQKFQGRVTVTTDTSTNTAYMELRSLKSDDTAVYYCARSSGWPHHYGMDVWGQGTTVTVSS VL: DIVMTQSPLSLPVTPGEPASISCRSSQSLLHSNGFNYFDWYLQKPGQSPQLLIFLVSNRASGVPDRFSGSGSGTDFTLKISRVEAEDVGIYYCMQALQTPLTFGGGTKVEIK",fold above average geomean of negative control,[6],> 10 fold
same,fold above average geomean of negative control,[7],> 10 fold
"STIM001 as screened from BCT (human V regions on mouse IgG1 constant region) (antibody, V domains shown) VH: QVQVVQSGAEVKKPGASVKVSCKASGYTFSTFGITWVRQAPGQGLEWMGWISAYNGDTNYAQNLQGRVIMTTDTSTSTAYMELRSLRSDDTAVYYCARSSGHYYYYGMDVWGQGTTVTVSS VL: DIVMTQSPLSLPVTPGEPASISCRSSQSLLHSNEYNYLDWYLQKPGQSPQLLIFLGSNRASGVPDRFSGSGSGTDFTLKITRVEAEDVGIYYCMQSLQTPLTFGGGTKVEIK",fold above average geomean of hybrid control,[1],> 4 fold
same,fold above average geomean of hybrid control,[2],> 4 fold
"STIM005 as screened from BCT (mouse IgG1 constant region) (antibody, V domains shown, as m28) VH: QVQLVQSGAEVKKPGASVKVSCKASGYTFNSYGIIWVRQAPGQGLEWMGWISVHNGNTNCAQKLQGRVTMTTDTSTSTAYMELRSLRTDDTAVYYCARAGYDILTDFSDAFDIWGHGTMVTVSS VL: DIQMTQSPSSLSASVGDRVTITCRASQNINNFLNWYQQKEGKGPKLLIYAASSLQRGIPSTFSGSGSGTDFTLTISSLQPEDFATYICQQSYGIPWVGQGTKVEIK",fold above average geomean of negative control (HTK888),[1],> 4 fold
same,fold above average geomean of negative control (HTK888),[2],> 4 fold
"STIM002-B as screened from BCT (mouse IgG1 constant region) (antibody, V domains shown, as m28) VH: QVQLVQSGGEVKKPGASVKVSCKASGYTFTSYGFSWVRQAPGQGLEWMGWISAYNGNTNYAQKLQGRVTMTTDTSTSTAYMELRSLRSDDTAVYYCARSTYFYGSGTLYGMDVWGQGTTVTVSS VL: DIVMTQSPLSLPVTPGEPASISCRSSQSLLHSDGYNCLDWYLQKPGQSPQLLIYLGSTRASGFPDRFSGSGSGTDFTLKISRVEAEDVGVYYCMQALQTPCSFGQGTKLEIK",fold above average geomean of hybrid control,[1],> 4 fold
same,fold above average geomean of hybrid control,[2],> 4 fold
"Anti-ICOS antibody C398.4A (hamster IgG) (antibody, V domains shown) VH: EVQLVESGGGLVKPAGSLTLSCVASGFTFSDYFMHWVRQAPGKGLEWVAVIDTKSFNYATYYSDLVKGRFTVSRDDSQGMVYLQMNNLRKEDTATYYCTATIAVPYYFDYWGQGTMVTVSS VL: DIQMTQSPSSLPASLGDRVTINCQASQDISNYLSWYQQKPGKAPKLLIYYTNLLADGVPSRFSGSGSGRDYSFTISSLESEDIGSYYCQQYYNYRTFGPGTKLEIK",IC50,[8],0.1 nM
same,IC50,[9],1.2 nM
same,IC50,[10],2.8 nM
same,IC50,[11],0.2 nM
same,IC50,[12],0.14 nM
STIM003 human IgG1 (antibody) heavy: not shown light: EIVLTQSPGTLSLSPGERATLSCRASQSVSRSYLAWYQQKRGQAPRLLIYGASSRATGIPDRFSGDGSGTDFTLSISRLEPEDFAVYYCHQYDMSPFTFGPGTKVDIKRTVAAPSVFIFPPSDEQLKSGTASVVCLLNNFYPREAKVQWKVDNALQSGNSQESVTEQDSKDSTYSLSSTLTLSKADYEKHKVYACEVTHQGLSSPVTKSFNRGEC,"EC50, primary NK cell ADCC on MJ cells, 2 h, Donor 1",[4],0.00233 nM
same,"EC50, primary NK cell ADCC on MJ cells, 2 h, Donor 2",[4],0.0358 nM
same,"EC50, primary NK cell ADCC on MJ cells, 2 h, Donor 3",[4],0.101 nM
same,"EC50, primary NK cell ADCC on ICOS-transfected CCRF-CEM cells, 4 h, Donor 4",[5],~0.003 nM
same,"EC50, primary NK cell ADCC on ICOS-transfected CCRF-CEM cells, 4 h, Donor 5",[5],0.000895 nM
same,"EC50, primary NK cell ADCC on ICOS-transfected CCRF-CEM cells, 4 h, Donor 6",[5],0.00103 nM
"CL-74570 (IgG1 format) (antibody, V domains shown, synthesised and expressed in human IgG1 format in HEK cells; tested as supernatant) VH: EVQLVESGGGVIRPGGSLRLSCAASGFTFDDYGMSWVRQAPGKGLEWVSGINWIGDNTDYADSVKGRFTISRDNAKNSLYLQMNSLRAEDTALYYCARDYFGSGSYYNVPF VL: not shown",fold above average geomean of negative control,[6],> 10 fold
same,fold above average geomean of negative control,[7],> 10 fold
